Reference: patent US20040143098, “Method for improving plant tolerance to environmental stress” (published 2004)

What was measured:
[1] = biological target: DBF1 (Zea mays); assay: EMSA; same buffer; ABRE reported as not bound; settings: tags: pET28 tag (about 31 aa), expressed in E. coli; label: 32P
Text: (§1) The following DNA oligonucleotides were used in electrophoretic mobility shift assays: DRE2 (SEQ ID NO 4 and 5), DRE2 m (SEQ ID NOs 6 and 7), DRE1 (SEQ ID NO 8 and 9), DRE1/ABRE1 (SEQ ID NOs 10 and 11), ABRE A (SEQ ID Nos12 and 13). The full-length oligonucleotides were purified by denaturing PAGE. Complementary oligonucleotides were annealed and purified in nondenaturing polyacrylamide gel. The double-stranded oligonucleotides were labelled with α³² P-dATP (3000 Ci/mmol, Amersham) by filling in with the Klenow fragment of the DNA polymerase I (Sambrook et al., 1989) and purified on a NAP5 column (Pharmacia), according to the manufacturers instructions. Unlabeled competitor DNA was filled in with nonradioactive nucleotides.
(§2) The radioactive probe was incubated with 400 ng of protein in 20 μl of 1× binding buffer (25 mM HEPES, pH 7.8, 75 mM KCl, 5 mM MgCl_{2,} 0.5 mM EDTA, 0.2 mM DTT and 10% glycerol) and 700 ng poly(dl-dC) for 20 min on ice before loading on a 1× Tris-borate-EDTA, 5% (30:0.8 acrylamide-bis) polyacrylamide gel. Electrophoresis was at 10 V/cm at 4° C. In competition assays the protein was incubated with non-radioactive oligonucleotides in 1× binding buffer, on ice for 10 min prior to adding the radioactive probe and continuing with incubation for 20 min more.

[2] = biological target: DBF1 (Zea mays); assay: EMSA; same buffer; settings: tags: pET28 tag (about 31 aa), expressed in E. coli; label: 32P
Text: as §1, §2

Sequence of DBF1 (Zea mays) (chain, as listed by the source): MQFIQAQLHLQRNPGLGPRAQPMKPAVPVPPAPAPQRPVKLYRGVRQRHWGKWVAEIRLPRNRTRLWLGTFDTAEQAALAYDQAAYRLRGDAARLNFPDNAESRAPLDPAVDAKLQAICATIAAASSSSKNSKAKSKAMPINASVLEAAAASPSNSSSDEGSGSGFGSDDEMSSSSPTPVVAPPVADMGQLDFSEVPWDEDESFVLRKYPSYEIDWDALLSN

B1: ABRE A (dsDNA)
DNA 1: TGGAAGCTTCGCGCCACGTGGGCATGAGATCT
DNA 2: TGGAGATCTCATGCCCACGTGGCGCGAAGCTT
binding result [1]: no binding

B2: DRE1 (dsDNA)
DNA 1: GGGGTCGAGAAGAACCGAGACGAAGCGGTCGAG
DNA 2: GGGGCTCGACCGCTTCGTCTCGGTTCTTCTCGA
binding result [2]: no binding
